Data as given in patent USRE47150 (Bayer, dated 2018).
Residue numbers refer to the chain shown, from its start. In names and notes the source's numbering stands. Each block holds one binder with its values, some of them ahead of it.

Legend:
[1] = target: T1, human tissue factor pathway inhibitor (TFPI) (human, UniProt P10646 29-304, limits assumed); test: competitive ELISA
T1 construct: bought; also called hTFPI; human TFPI
T1 sequence (looked up): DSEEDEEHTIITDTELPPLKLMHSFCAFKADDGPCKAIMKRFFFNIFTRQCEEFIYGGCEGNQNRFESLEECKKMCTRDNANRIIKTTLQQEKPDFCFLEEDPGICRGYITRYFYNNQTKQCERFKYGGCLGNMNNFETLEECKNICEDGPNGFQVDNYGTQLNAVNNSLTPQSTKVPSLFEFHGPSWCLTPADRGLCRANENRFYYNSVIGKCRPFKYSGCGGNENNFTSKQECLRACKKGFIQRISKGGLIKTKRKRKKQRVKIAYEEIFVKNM

[2] = target: T2, mouse tissue factor pathway inhibitor (TFPI) (mouse, UniProt O54819 29-289, limits assumed); test: equilibrium ELISA
T2 construct: bought; also called mTFPI; murine TFPI
T2 sequence (looked up): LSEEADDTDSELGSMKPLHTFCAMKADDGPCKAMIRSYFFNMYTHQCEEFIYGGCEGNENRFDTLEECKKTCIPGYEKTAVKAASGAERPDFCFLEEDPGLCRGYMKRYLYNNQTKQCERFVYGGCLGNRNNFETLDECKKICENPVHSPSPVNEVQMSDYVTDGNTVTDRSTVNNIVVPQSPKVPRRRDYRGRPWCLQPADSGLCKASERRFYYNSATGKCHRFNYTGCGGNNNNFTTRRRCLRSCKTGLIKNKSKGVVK

[3] = target: T1, human tissue factor pathway inhibitor …; test: SPR, TFPI immobilized
[4] = target: T2, mouse tissue factor pathway inhibitor …; test: SPR, TFPI immobilized
[5] = target: T2, mouse tissue factor pathway inhibitor …; test: competitive ELISA
[6] = target: T1, human tissue factor pathway inhibitor …; test: competitive ELISA; remark: listed apart in the source

B1: 4B7 LC_D97M (Fab, V domains shown)
VH: QVQLQQSGPGLVKPSQTLSLTCAISGDSVSSNSAAWSWIRQSPGRGLEWLGIIYKRSKWYNDYAVSVKSRITINPDTSKNQFSLQLNSVTPEDTAVYYCARWHSDKHWGFDYWGQGTLVTVSS
VL: DIVMTQSPLSLPVTPGEPASISCRSSQSLVFSDGNTYLNWYLQKPGQSPQLLIYKGSNRASGVPDRFSGSGSGTDFTLKISRVEAEDVGVYYCQQYMSYPLTFGQGTKVEIKR
variant/wild-type [1]: 2.4 ratio
variant/wild-type [2]: 1.3 ratio

B2: 4B7 LC_D97T (Fab, V domains shown)
VH: B1 VH
VL: B1 VL with M97T
variant/wild-type [1]: 1.8 ratio
variant/wild-type [2]: 5.5 ratio

B3: 4B7 LC_F31I (Fab, V domains shown)
VH: B1 VH
VL: B1 VL with F31I, M97D
variant/wild-type [1]: 9.1 ratio
variant/wild-type [2]: 23.6 ratio

B4: 4B7 LC_F31M (Fab, V domains shown)
VH: B1 VH
VL: B1 VL with F31M, M97D
variant/wild-type [1]: 1.7 ratio
variant/wild-type [2]: 1.3 ratio

B5: 4B7 LC_N35I (Fab, V domains shown)
VH: B1 VH
VL: B1 VL with N35I, M97D
variant/wild-type [1]: 3.6 ratio
variant/wild-type [2]: 7.1 ratio

B6: 4B7 LC_N35L (Fab, V domains shown)
VH: B1 VH
VL: B1 VL with N35L, M97D
variant/wild-type [1]: 2.1 ratio
variant/wild-type [2]: 6 ratio

B7: 4B7 LC_N35L LC_G56A (Fab, V domains shown)
VH: B1 VH
VL: B1 VL with N35L, G56A, M97D
variant/wild-type [1]: 3.1 ratio
variant/wild-type [2]: 6.9 ratio

B8: 4B7 LC_N35T (Fab, V domains shown)
VH: B1 VH
VL: B1 VL with N35T, M97D
variant/wild-type [1]: 5.4 ratio
variant/wild-type [2]: 3.4 ratio

B9: 4B7 LC_N35V LC_G56D (Fab, V domains shown)
VH: B1 VH
VL: B1 VL with N35V, G56D, M97D
variant/wild-type [1]: 1.9 ratio
variant/wild-type [2]: 8.2 ratio

B10: 4B7 LC_S32R (Fab, V domains shown)
VH: B1 VH
VL: B1 VL with S32R, M97D
variant/wild-type [1]: 4.2 ratio
variant/wild-type [2]: 7.8 ratio

B11: 4B7 LC_S32Y (Fab, V domains shown)
VH: B1 VH
VL: B1 VL with S32Y, M97D
variant/wild-type [1]: 2 ratio
variant/wild-type [2]: 6.7 ratio

B12: 4B7 LC_S57Y (Fab, V domains shown)
VH: B1 VH
VL: B1 VL with S57Y, M97D
variant/wild-type [1]: 1.6 ratio
variant/wild-type [2]: 2.2 ratio

B13: 4B7 LC_S61C (Fab, V domains shown)
VH: B1 VH
VL: B1 VL with S61C, M97D
variant/wild-type [1]: 3.1 ratio
variant/wild-type [2]: 15.3 ratio

B14: 4B7 LC_Y37F (Fab, V domains shown)
VH: B1 VH
VL: B1 VL with Y37F, M97D
variant/wild-type [1]: 3.6 ratio
variant/wild-type [2]: 1.9 ratio

B15: B2.0 (4B7 HC N32D+D62R+Y112D/LC S32R+D33F+N35I+D97T) (Fab, V domains shown)
VH: B1 VH with N32D, D62R, Y112D
VL: B1 VL with S32R, D33F, N35I, M97T
KD fold improvement [3]: 2180 fold
Kd [3]: 0.0051 nM
koff [3]: 3.81e-05 s⁻¹
kon [3]: 7.46e+06 M⁻¹ s⁻¹
KD fold improvement [4]: 1210 fold
Kd [4]: 0.0451 nM
koff [4]: 0.000315 s⁻¹
kon [4]: 6.99e+06 M⁻¹ s⁻¹
variant/HC_D62R [5]: 40 ratio
variant/HC_D62R [6]: 26.2 ratio

Results, then the binder that gave them:

KD fold improvement [3]: 1270 fold
Kd [3]: 0.00878 nM
koff [3]: 2.61e-05 s⁻¹
kon [3]: 2.97e+06 M⁻¹ s⁻¹
KD fold improvement [4]: 588 fold
Kd [4]: 0.0931 nM
koff [4]: 0.000334 s⁻¹
kon [4]: 3.59e+06 M⁻¹ s⁻¹
variant/HC_D62R [5]: 30.1 ratio
variant/HC_D62R [6]: 26.1 ratio
B16: B9.7 (4B7 HC N32D+D62R+Y112D/LC S32R+N35I) (Fab, V domains shown)
VH: B1 VH with N32D, D62R, Y112D
VL: B1 VL with S32R, N35I, M97D

KD fold improvement [3]: 428 fold
Kd [3]: 0.026 nM
koff [3]: 3.18e-05 s⁻¹
kon [3]: 1.23e+06 M⁻¹ s⁻¹
KD fold improvement [4]: 139 fold
Kd [4]: 0.395 nM
koff [4]: 0.00043 s⁻¹
kon [4]: 1.09e+06 M⁻¹ s⁻¹
variant/HC_D62R [5]: 14 ratio
variant/HC_D62R [6]: 22.4 ratio
B17: B18.5 (4B7 HC N32D+D62Q+Y112D/LC F31I+D33F+N35I) (Fab, V domains shown)
VH: B1 VH with N32D, D62Q, Y112D
VL: B1 VL with F31I, D33F, N35I, M97D

KD fold improvement [3]: 875 fold
Kd [3]: 0.0127 nM
koff [3]: 3.53e-05 s⁻¹
kon [3]: 2.78e+06 M⁻¹ s⁻¹
KD fold improvement [4]: 299 fold
Kd [4]: 0.183 nM
koff [4]: 0.000742 s⁻¹
kon [4]: 4.06e+06 M⁻¹ s⁻¹
variant/HC_D62R [5]: 9.5 ratio
variant/HC_D62R [6]: 26 ratio
B18: B27.1 (4B7 HC N32D+D62R+Y112D/LC N35T+D97T) (Fab, V domains shown)
VH: B1 VH with N32D, D62R, Y112D
VL: B1 VL with N35T, M97T

KD fold improvement [3]: 749 fold
Kd [3]: 0.0148 nM
koff [3]: 3.19e-05 s⁻¹
kon [3]: 2.15e+06 M⁻¹ s⁻¹
KD fold improvement [4]: 528 fold
Kd [4]: 0.104 nM
koff [4]: 0.000468 s⁻¹
kon [4]: 4.52e+06 M⁻¹ s⁻¹
variant/HC_D62R [5]: 20.8 ratio
variant/HC_D62R [6]: 20.3 ratio
B19: B32.5 (4B7 HC D62R+Y112D/LC D33F+N35I) (Fab, V domains shown)
VH: B1 VH with D62R, Y112D
VL: B1 VL with D33F, N35I, M97D

KD fold improvement [3]: 1550 fold
Kd [3]: 0.00716 nM
koff [3]: 2.47e-05 s⁻¹
kon [3]: 3.46e+06 M⁻¹ s⁻¹
KD fold improvement [4]: 1060 fold
Kd [4]: 0.0519 nM
koff [4]: 0.000245 s⁻¹
kon [4]: 4.73e+06 M⁻¹ s⁻¹
variant/HC_D62R [5]: 42 ratio
variant/HC_D62R [6]: 29.7 ratio
B20: B41.2 (4B7 HC N32D+D62R+Y112D/LC S32R+D33F+N35I) (Fab, V domains shown)
VH: B1 VH with N32D, D62R, Y112D
VL: B1 VL with S32R, D33F, N35I, M97D

KD fold improvement [3]: 1090 fold
Kd [3]: 0.0102 nM
koff [3]: 9.55e-06 s⁻¹
kon [3]: 938000 M⁻¹ s⁻¹
KD fold improvement [4]: 275 fold
Kd [4]: 0.199 nM
koff [4]: 0.000185 s⁻¹
kon [4]: 929000 M⁻¹ s⁻¹
variant/HC_D62R [5]: 25.5 ratio
variant/HC_D62R [6]: 22.6 ratio
B21: gB9.7 (4B7 HC Q1E+N32D+G44S+K55Y+D62R+Y112D/LC S32R+N35I) (Fab, V domains shown)
VH: B1 VH with Q1E, N32D, G44S, K55Y, D62R, Y112D
VL: B1 VL with S32R, N35I, M97D

KD fold improvement [3]: 1450 fold
Kd [3]: 0.00765 nM
koff [3]: 1.56e-05 s⁻¹
kon [3]: 2.03e+06 M⁻¹ s⁻¹
KD fold improvement [4]: 6250 fold
Kd [4]: 0.00875 nM
koff [4]: 2.36e-05 s⁻¹
kon [4]: 2.7e+06 M⁻¹ s⁻¹
B22: gB9.7-IgG (4B7 HC N32D+G44S+K55Y+D62R+Y112D/LC S32R+N35I) (antibody, V domains shown)
VH: B1 VH with N32D, G44S, K55Y, D62R, Y112D
VL: B1 VL with S32R, N35I, M97D
notes: IgG format by its name
